Test results published in article PMC9910501.

Target: OsASI1-BAH (residues 19 to 183) (rice)
Assay: ITC

Kd: 184 nM
Substance: OsSUVH6 N-terminal peptide (OsSUVH6N, residues 287 to 304)
